These results are taken from article PMC2878485 (Structure (London, England : 1993), 2008).

For data set [1], the target named is UL44ΔC290 wild-type (Human cytomegalovirus, UniProt P16790 1-290). As to the kind of experiment: disulfide crosslinking, nonreducing PAGE.
Data set [2] concerns the target T1, UL44ΔC290 (wild-type; N-terminal 290 residues of human cytomegalovirus UL44) (human cytomegalovirus, UniProt P16790 1-290).
T1 sequence (looked up): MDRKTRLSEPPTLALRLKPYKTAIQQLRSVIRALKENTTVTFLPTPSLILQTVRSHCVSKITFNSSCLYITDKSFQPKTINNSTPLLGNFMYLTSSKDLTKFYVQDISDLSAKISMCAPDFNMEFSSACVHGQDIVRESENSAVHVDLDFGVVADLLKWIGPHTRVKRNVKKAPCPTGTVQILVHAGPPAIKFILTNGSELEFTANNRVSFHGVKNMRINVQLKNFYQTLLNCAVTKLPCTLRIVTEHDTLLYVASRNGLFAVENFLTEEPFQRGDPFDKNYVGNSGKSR
As to the kind of experiment: ITC.

In data set [3] the target is T2, UL44ΔC290 R165A/K167A/R168A/K171A/K172A (human cytomegalovirus, UniProt P16790 1-290, R165A | K167A | R168A | K171A | K172A).
T2 sequence (looked up): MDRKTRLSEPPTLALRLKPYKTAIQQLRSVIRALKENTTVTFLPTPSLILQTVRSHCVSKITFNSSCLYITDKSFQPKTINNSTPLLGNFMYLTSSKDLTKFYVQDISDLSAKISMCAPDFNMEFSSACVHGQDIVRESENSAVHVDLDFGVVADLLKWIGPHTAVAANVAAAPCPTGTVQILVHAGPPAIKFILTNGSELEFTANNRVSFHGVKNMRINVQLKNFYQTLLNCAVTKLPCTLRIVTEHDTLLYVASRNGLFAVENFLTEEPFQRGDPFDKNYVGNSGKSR
As to the kind of experiment: ITC. (Isothermal titration calorimetry measures the heat released or taken up as one component is titrated into another.)

The target in data set [4] is T3, UL44ΔC290 K35A/K158A/K224A/K237A (human cytomegalovirus, UniProt P16790 1-290, K35A | K158A | K224A | K237A).
T3 sequence (looked up): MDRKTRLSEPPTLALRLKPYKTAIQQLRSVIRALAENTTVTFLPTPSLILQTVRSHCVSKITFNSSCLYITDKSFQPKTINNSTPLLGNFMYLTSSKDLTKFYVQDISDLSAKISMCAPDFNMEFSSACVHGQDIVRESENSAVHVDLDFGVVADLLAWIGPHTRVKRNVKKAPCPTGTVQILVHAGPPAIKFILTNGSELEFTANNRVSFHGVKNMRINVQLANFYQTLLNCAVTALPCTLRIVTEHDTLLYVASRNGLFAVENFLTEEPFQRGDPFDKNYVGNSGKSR
As to the kind of experiment: ITC.

B1: 18 bp thiol-tethered DNA (dsDNA)
DNA 1: TACCGCAGCCATCAGAGT
DNA 2: ACTCTGATGGCTGCGGTA
modifications: single thiol tether on backbone phosphate between bases 11 and 12 of strand 1
With B1, in data set [1], the binding result is reported as “binds”.
Turning to LPRRLHLEPAFLPYSVKAHECC (peptide, UniProt P08546 1221-1242, looked up) [peptide corresponding to the C-terminal 22 residues of UL54], the binding result in data set [2], in data set [3] and in data set [4] was “binds” in each case.
